Reference: patent publication US20060058504A1, “Peptides capable of inducing attraction to the axonal growth and their use for treating neurodegenerative diseases” (Centre National de la Recherche Scientific (CNRS), priority 2002, published 2006)
Where a chain is given by its changes, count along the chain named. Names and notes keep the numbering of the source. “Also recorded” adds a separate entry of the source. Like-named read-outs stand apart in the source and are kept apart here.

B1: L1Fc: soluble wild-type L1Fc chimeric protein (protein)
chain: IQIPEEYEGHHVMEPPVITEQSPRRLVVFPTDDISLKCEASGKPEVQFRWTRDGVHFKPKEELGVTVYQSPHSGSFTITGNNSNFAQRFQGIYRCFASNKLGTAMSHEIRLMAEGAPKWPKETVKPVEVEEGESVVLPCNPPPSAEPLRIYWMNSKILHIKQDERVTMGQNGNLYFANVLTSDNHSDYICHAHFPGTRTIIQKEPIDLRVKATNSMIDRKPRLLFPTNSSSHLVALQGQPLVLECIAEGFPTPTIKWLRPSGPMPADRVTYQNHNKTLQLLKVGEEDDGEYRCLAENSLGSARHAYYVTVEAAPYWLHKPQSHLYGPGETARLDCQVQGRPQPEVTWRINGIPVEELAKDQKYRIQRGALILSNVQPSDTMVTQCEARNRHGLLLANAYIYVVQLPAKILTADNQTYMAVQGSTAYLLCKAFGAPVPSVQWLDEDGTTVLQDERFFPYANGTLGIRDLQANDTGRYFCLAANDQNNVTIMANLKVKDATQITQGPRSTIEKKGSRVTFTCQASFDPSLQPSITWRGDGRDLQELGDSDKYFIEDGRLVIHSLDYSDQGNYSCVASTELDVVESRAQLLVVGSPGPVPRLVLSDLHLLTQSQVRVSWSPAEDHNAPIEKYDIEFEDKEMAPEKWYSLGKVPGNQTSTTLKLSPYVHYTFRVTAINKYGPGEPSPVSETVVTPEAAPEKNPVDVKGEGNETTNMVITWKPLRWMDWNAPQVQYRVQWRPQGTRGPWQEQIVSDPFLVVSNTSTFVPYEIKVQAVNSQGKGPEPQVTIGYSGEDYPQAIPELEGIEILNSSAVLVKWRPVDLAQVKGHLRGYNVTYWREGSQRKHSKRHIHKDHVVVPANTTSVILSGLRPYSSYHLEVQAFNGRGSGPASEFTFSTPEGVPGHPEALHLECQSNTSLLLRWQPPLSHNGVLTGYVLSYHPLDEGGKGQLSFNLRDPELRTHNLTDLSPHLRYRFQLQATTKEGPGEAIVREGGTMALSGISDFGNISATAGENYSVVSWVPKEGQCNFRFHILFKALGEEKGGASLSPQYVSYNQSSYTQWDLQPDTDYEIHLFKERMFRHQMAVKTNGTGRVRLPPAGFATE
modifications: left off: a dimerising Fc or GST
notes: soluble wild-type L1Fc chimeric protein
B2: G121S: L1Fc chimera with missense mutation G121S in Ig domain 1 (protein)
chain: B1 chain with G102S
modifications: left off: a dimerising Fc or GST
B3: L120V: L1Fc chimera with missense mutation L120V in Ig domain 1 (protein)
chain: B1 chain with L101V
modifications: left off: a dimerising Fc or GST

Tests used:
Plexin-A1 = Plexin-A1 (Homo sapiens, UniProt Q9UIW2); assay: Binding of L1Fc to Plexin-A1 expressing COS7 cells (immunofluorescence)
Plexin-A1, sequence (Q9UIW2 27-1896, species assumed): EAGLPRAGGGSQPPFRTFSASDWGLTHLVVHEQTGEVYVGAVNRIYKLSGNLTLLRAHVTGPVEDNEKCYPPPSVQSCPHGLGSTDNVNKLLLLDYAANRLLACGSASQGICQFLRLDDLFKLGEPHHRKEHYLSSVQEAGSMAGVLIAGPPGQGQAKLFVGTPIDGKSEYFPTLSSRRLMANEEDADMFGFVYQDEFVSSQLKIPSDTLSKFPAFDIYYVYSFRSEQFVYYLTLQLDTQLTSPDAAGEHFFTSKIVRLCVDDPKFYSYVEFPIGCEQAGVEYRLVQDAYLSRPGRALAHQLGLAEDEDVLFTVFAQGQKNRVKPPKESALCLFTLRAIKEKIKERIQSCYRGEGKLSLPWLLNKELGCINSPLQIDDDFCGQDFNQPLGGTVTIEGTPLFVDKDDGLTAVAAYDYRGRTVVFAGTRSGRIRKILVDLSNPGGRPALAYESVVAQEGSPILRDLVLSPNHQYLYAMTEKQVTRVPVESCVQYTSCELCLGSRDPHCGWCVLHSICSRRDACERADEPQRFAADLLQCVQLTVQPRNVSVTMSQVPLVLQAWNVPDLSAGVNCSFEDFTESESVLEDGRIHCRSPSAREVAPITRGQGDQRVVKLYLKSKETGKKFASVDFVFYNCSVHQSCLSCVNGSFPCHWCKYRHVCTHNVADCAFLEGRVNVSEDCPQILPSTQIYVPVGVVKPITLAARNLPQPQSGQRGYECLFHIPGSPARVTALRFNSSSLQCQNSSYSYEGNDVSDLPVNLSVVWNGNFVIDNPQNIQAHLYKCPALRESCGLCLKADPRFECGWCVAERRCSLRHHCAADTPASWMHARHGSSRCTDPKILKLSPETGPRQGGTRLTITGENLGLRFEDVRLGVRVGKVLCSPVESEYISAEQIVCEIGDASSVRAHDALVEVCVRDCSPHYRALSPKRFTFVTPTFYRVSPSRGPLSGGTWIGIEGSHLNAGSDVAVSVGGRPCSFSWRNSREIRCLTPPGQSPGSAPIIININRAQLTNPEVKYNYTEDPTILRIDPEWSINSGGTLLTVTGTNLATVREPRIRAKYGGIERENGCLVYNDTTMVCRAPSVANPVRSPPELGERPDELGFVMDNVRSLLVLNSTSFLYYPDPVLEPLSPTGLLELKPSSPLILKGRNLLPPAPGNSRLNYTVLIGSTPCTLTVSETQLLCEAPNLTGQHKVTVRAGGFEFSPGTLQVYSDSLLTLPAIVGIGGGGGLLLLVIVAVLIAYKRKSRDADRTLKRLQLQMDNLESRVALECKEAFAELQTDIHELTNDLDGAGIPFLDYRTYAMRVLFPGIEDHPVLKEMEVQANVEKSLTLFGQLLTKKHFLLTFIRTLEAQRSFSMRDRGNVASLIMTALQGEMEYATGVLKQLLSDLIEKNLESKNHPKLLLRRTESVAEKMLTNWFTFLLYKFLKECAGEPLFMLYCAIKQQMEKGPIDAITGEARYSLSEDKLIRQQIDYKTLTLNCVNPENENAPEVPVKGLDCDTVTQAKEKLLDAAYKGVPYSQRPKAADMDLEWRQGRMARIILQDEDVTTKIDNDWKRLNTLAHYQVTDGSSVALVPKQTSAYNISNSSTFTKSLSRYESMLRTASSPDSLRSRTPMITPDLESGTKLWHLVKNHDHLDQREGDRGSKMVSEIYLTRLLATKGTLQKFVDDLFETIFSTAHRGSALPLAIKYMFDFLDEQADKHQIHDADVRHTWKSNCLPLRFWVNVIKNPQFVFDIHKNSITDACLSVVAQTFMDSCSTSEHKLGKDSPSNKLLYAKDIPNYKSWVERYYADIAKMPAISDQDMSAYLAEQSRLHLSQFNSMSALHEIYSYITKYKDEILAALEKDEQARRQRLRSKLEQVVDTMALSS

[1] = test system: cortical axons repelled by Sema3A secreted from the ventral spinal cord; assay: Co-culture of cortical slices and ventral spinal cord explants (axon guidance response to Sema3A); assay type: cell-based, mice; details: for switching of Sema3A repulsion to attraction by L1Fc chimera: chimera 3 μg/ml in culture medium; for guidance index: qualitative index from −2 (repulsion) to +2 (attraction), L1Fc chimeras 3 μg/ml, ODQ 10^−5M
Experimental: Blocks of cortex were dissected from P0 (postnatal day 0) to P2 mice and cut into 250 μm thick slices with a McIlwain tissue chopper. The ventral part of the cervical spinal cord was dissected and cut into 250 μm thick slices. Co-culture of cortical slices and ventral spinal cord explants were performed in a three-dimensional plasma clot, as described previously (Castellani et al., 2000). Cortical slices were oriented in the plasma clot as indicated in FIG. 1B to give to axons equivalent chances to be deflected away or towards the spinal cord explant. Purified wild-type or mutant L1Fc chimeras were added to the culture medium (3 μg/ml). Inhibitors of the guanylyl cyclase (ODQ, 10^−5 M, Sigma) and NOS (7NI, […], Sigma) were added to the culture medium, either alone or with wild-type L1Fc (3 μg/ml). After one or two days in vitro (DIV), the cultures were fixed with 4% paraformaldehyde (PFA) and analyzed by phase contrast microscopy (Axiovert 35-M, Zeiss). A qualitative guidance index was attributed to the co-cultures, to assess the degree of repulsive (negative values) or attractive (positive values) effects (Castellani et al., 2000). The index ranged from −2 (when most fibers grew away from the spinal cord explant) to +2 (when most fibers grew towards the explant), with intermediate situations (index of −1 and +1 for moderate guidance effects). An index of zero was attributed to the cultures showing no preferential growth. Quantitative analysis of axon length and number of axons growing from cortical slices was performed as described previously (Castellani et al., 2000). A proximal and a distal region, each of them covering a 600 μm-piece of cortical tissue were determined for each culture. All fibers extending from these two regions were counted and the length of the three longest fibers was measured, using computer analysis software (Visiolab 2000, Biocom). Immunofluorescence labeling of axons was performed using the mouse anti-phosphorylated neurofilament antibody SMI31 (Stemberger and Meyer Inc.), and Texas red-conjugated secondary anti-mouse antibody (see result obtained for number of axons and axonal length in the following tables 1 and 2).
It has been previously developed an assay system using explants of ventral spinal cord co-cultured with cortical axons in order to determine the factors involved in axonal repulsion and attraction (Castellani et al., 2000). Using this system we have shown that Sema3A secreted from the ventral spinal cord repels cortical axons. In the presence of soluble wild-type L1Fc chimeric protein however, repulsion is switched to attraction (Castellani et al., […]). In the present study, we aimed to identify the L1 interactions underlying the switching process. As Ig domains have been implicated in binding of Ig CAMs to many of their ligands (Brümmendorf and Rathjen, 1996) we hypothesized that they would also be required for L1 Fc-mediated switching. […] L1 Fc chimeras containing pathological missense mutations affecting specific Ig domains (De Angelis et al., 1999 and FIGS. 1A, 1B) were assessed for their ability to reverse Sema3A repulsion to attraction.

full length human L1 = target: T1, full length human L1 (Homo sapiens, UniProt P32004); assay: Binding of L1Fc chimeras to COS cells expressing wild-type L1 (immunofluorescence)
T1 construct: transiently transfected with expression vectors encoding full length human L1; expressed in transfected cells; host or cells: COS7
T1 sequence (P32004 20-1257): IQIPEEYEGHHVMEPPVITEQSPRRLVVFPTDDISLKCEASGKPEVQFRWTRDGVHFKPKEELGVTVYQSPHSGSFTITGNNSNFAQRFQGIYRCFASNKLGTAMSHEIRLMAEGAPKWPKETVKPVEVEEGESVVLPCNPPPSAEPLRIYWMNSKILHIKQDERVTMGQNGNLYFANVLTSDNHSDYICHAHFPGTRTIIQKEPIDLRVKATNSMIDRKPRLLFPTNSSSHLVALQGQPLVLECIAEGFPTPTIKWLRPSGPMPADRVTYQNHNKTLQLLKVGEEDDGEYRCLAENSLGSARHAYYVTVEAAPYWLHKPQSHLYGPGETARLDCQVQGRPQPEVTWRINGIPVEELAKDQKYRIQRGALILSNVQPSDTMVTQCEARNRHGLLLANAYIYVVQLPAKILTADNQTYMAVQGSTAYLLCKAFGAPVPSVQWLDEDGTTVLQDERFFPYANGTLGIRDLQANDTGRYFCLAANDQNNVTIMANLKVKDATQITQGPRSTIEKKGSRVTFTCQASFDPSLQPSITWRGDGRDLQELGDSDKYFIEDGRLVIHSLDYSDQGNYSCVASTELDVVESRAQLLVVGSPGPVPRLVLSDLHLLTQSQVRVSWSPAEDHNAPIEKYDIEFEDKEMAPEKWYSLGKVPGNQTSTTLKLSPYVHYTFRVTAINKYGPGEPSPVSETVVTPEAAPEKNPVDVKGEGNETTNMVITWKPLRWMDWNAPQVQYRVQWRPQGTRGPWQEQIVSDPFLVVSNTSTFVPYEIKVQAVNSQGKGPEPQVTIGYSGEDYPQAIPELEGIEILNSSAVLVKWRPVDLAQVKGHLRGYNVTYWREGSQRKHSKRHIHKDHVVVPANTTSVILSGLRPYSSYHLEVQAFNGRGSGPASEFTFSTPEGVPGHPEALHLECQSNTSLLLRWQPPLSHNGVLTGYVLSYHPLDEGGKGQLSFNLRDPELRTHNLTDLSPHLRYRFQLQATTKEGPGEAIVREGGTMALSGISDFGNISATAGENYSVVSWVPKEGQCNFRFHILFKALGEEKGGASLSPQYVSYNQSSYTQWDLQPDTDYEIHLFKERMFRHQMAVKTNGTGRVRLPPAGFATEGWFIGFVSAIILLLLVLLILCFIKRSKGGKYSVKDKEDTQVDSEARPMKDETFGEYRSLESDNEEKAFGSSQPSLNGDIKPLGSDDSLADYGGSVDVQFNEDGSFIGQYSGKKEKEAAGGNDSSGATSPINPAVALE
Experimental: (§1) The mutant L1Fc chimeras were produced and purified as described previously (De Angelis et al., 1999). Briefly, COS-7 cells were transiently transfected with 10 μg DNA per 150 mm culture dish, the soluble Fc chimeric protein was allowed to accumulate in the media for 6 days and was recovered and purified by protein A-Sepharose affinity chromatography. In the binding experiments, L1Fcs were cross-linked to anti-human Fc antibodies (50 μg/ml, Jackson Immunoresearch) for 1 hr at 37° C. Binding detection to NP-1 requested concentrations of L1Fcs 10 folds higher than L1. Antibody conjugated L1-Fc protein was then incubated with monolayers of COS7 cells transiently transfected with expression vectors encoding full length human L1 or myc-tagged NP-1 where the cytoplasmic domain is deleted (gift of J. Raper, 2000 and Renzi et al., 1999). Following incubation, the cells were fixed with 4% PFA, and processed for double-immunofluorescence detection. NP-1 was detected using a mouse anti-c myc antibody (clone 9E10, Sigma) and L1 using a rat monoclonal anti-L1 antibody. Secondary antibody anti-c-myc (Texas-red conjugated anti-mouse antibodies) was used to detect NP-1, anti-L1 (Texas red conjugated anti-rat antibodies) to detect L1, and anti-Fc (FITC conjugated anti-rabbit antibodies) to detect bound L1Fc chimeras. After secondary antibody incubation, the cells were washed with PBS and mounted in Mowiol (Calbiochem).
Thus, Ig CAMs F3 and TAG-1 (the rodent homologue of axonin-1) ate unlikely to be axonal receptors for L1Fc in the reversion process. […] In the present study however, mutated L1Fc proteins were required to interact with wild-type L1 expressed on growth cones. To formally exclude a role for homophilic binding of L1 in the initiation of the reversion process, it was therefore necessary to examine whether homophilic binding of the mutated L1Fc chimeras to wild-type L1 was also disrupted. Mutated L1Fcs were therefore incubated with COS7 cells transfected with full-length wild-type L1 cDNA and binding was assessed by immunofluorescence. In parallel, homophilic binding of mutant/mutant and mutant/wild-type L1Fcs was compared in a two-color FACS aggregation assay, allowing a quantitative assessment to be made (see Methods). […] Similarly, in the two color FACS assay homophilic binding was restored to 74.4% and 90.5% of wild-type levels for A426D and H210Q respectively (FIG. 2B). […] This mutation however still promoted the L1 Fc induced switching of Sema3A repulsion to attraction in the co-culture assay. Thus, the ability of L1Fc to switch Sema3A repulsion is not dependent on homophilic binding. Consequently, the trans interaction of L1Fc with L1 in the receptor complex is not required for the change in growth cone responsiveness to Sema3A.

F3, axonin-1 and TAX-1 = details: F3, axonin-1 (and TAX-1 where stated); cited from earlier work
L1 = details: mutant bound to itself; cited from earlier work
wild-type L1 = assay: Two-color FACS aggregation assay (homophilic binding); details: mixed aggregates at the 30-minute time-point; mutant/wild-type
wild-type L1, sequence (P32004 with tags, fused parts or gaps limits assumed): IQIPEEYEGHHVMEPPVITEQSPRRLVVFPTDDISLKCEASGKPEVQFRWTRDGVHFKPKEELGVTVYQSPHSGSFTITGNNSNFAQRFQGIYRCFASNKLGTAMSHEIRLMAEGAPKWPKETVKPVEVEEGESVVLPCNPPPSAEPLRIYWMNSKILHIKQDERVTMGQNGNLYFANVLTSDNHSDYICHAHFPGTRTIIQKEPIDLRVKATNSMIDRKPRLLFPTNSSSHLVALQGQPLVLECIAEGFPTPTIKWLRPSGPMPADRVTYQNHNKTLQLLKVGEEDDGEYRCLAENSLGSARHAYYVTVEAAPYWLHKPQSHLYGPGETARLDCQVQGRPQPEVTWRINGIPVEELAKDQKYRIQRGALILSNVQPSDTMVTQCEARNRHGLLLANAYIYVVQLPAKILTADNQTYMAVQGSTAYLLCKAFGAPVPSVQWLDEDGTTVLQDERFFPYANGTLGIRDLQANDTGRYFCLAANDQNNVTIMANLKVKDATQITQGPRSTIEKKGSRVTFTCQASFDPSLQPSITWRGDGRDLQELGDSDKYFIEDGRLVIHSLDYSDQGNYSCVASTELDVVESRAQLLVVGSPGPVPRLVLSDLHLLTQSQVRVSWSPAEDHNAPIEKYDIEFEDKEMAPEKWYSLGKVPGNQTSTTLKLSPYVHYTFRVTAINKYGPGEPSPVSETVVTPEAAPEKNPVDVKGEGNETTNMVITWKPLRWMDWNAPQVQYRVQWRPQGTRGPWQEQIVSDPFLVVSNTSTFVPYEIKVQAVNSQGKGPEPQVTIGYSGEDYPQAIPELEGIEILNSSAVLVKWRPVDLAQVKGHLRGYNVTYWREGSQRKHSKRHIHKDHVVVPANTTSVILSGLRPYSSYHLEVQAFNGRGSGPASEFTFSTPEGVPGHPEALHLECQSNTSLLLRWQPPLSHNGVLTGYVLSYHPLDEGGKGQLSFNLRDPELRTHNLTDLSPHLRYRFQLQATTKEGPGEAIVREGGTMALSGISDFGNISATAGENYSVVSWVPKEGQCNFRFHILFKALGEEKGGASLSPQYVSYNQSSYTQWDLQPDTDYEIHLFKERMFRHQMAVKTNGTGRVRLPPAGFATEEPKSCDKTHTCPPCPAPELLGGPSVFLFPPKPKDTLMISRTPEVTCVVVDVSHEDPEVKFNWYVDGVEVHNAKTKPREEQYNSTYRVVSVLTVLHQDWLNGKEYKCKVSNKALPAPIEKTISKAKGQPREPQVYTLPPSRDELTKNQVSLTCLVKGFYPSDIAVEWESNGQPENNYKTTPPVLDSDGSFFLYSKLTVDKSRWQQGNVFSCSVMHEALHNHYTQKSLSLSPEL
Experimental: A two-color aggregation assay was developed, modified from the homophilic binding assay described by De Angelis et al. (1999). For the two-color assay, red and green fluorescent microsphere beads (0.6 um, Duke Scientific Corps.) were coated with anti-human IgG antibody (Fc specific; Sigma, 1-2136). 2.5 μg of wild type (red beads) or mutant (green beads) L1Fc-proteins were conjugated to 10 μl of antibody-coated beads by incubating for 2 hrs at 37° C. Excess unbound protein was removed by washing with PBS/5% FCS. For each mutant, a 1:1 mixture of wild-type L1 and mutant L1 coated beads was prepared, dissaggregated to produce a single bead suspension and allowed to form mixed aggregates at 37° C. with samples removed in duplicate over a 30-minute time course. Samples were diluted 1:5000 into ice cold PBS and the proportion of 2 colour aggregates was assessed using a fluorescence activated cell sorter (Becton Dickenson FACSort). Ten thousand particles were counted per sample and categorised as red only (WT-L1: WT-L1), green only (Mutant L1: Mutant L1) or mixed aggregates. Every mutant protein was assayed at least 3 separate times and standardised to a wild-type control conducted in parallel.

NP-1 = assay: Binding of L1Fc chimeras to NP-1 expressing COS7 cells (immunofluorescence)
Experimental: as §1
Next, we examined the ability of the mutant L1 Fc chimeras to bind NP-1. COS7 cells were transfected with a vector encoding the extracellular and transmembrane domains of NP-1 fused to a myc tag (ANP-1, Renzi et al., J. Neurosci., 15:7870-7880, 1999), and incubated with the mutant L1Fc chimeras. Binding was detected by immunofluorescence. […] Binding of L120V, G121S and A426D L1Fcs to NP-1 is illustrated in FIG. 3.

[2] = Ctx/vSC co-culture, growth away from spinal cord explant, L1Fc 3 μg/ml, ODQ 10^−5 M
[3] = Ctx/vSC co-culture, growth towards spinal cord explant, L1Fc 3 μg/ml, ODQ 10^−5 M

| Molecule | binding to Plexin-A1 expressing cells (Plexin-A1) | binding to Plexin-A1 expressing cells (Plexin-A1; listed as Wild-type L1 Fc) | Axonal length, Away [1, 2] | Number of axons, Away [1, 2] | Axonal length, Towards [1, 3] | Number of axons, Towards [1, 3] | switching of Sema3A repulsion to attraction by L1Fc chimera [1] | guidance index [1] | binding to wild-type L1 expressed in COS cells (full length human L1) | binding to wild-type L1 expressed in COS cells (full length human L1; listed as Wild-type L1 Fc) | effect of mutation on heterophilic binding (F3, axonin-1 and TAX-1) | effect of mutation on homophilic binding (L1) | homophilic binding to wild-type L1, percent of wild-type levels (wild-type L1) | binding to NP-1 expressing cells (NP-1) | binding to NP-1 expressing cells (NP-1; listed as L120V-L1Fc) |
| --- | --- | --- | --- | --- | --- | --- | --- | --- | --- | --- | --- | --- | --- | --- | --- |
| B1 | no binding to Plexin-A1 expressing cells | not Plexin-A 1-expressing cells | 198.6 +/− 4 | 5.8 +/− 0.7 | 346.8 +/− 5, * | 22.6 +/− 1.6, * | switched repulsion to attraction | +1.5 | clear binding | bound to L1 | – | – | – | – | – |
| B2 | – | – | – | – | – | – | able to reverse Sema3A repulsion to attraction; also recorded: efficiently induce switching of Sema3A repulsion to attraction; also recorded: switched Sema3A from repulsion to attraction to the same extent as wild type L1Fc | – | did not; also recorded: almost abolished homophilic binding to wild-type L1 | – | reduce | reduce homophilic binding | extremely low; also recorded: almost abolished homophilic binding to wild-type L1 | bound to NP-1 expressing cells | – |
| B3 | – | – | – | – | – | – | unable to switch the repulsive activity of Sema3A to attraction; also recorded: abrogated the reversal of Sema3A repulsion to attraction; also recorded: failed to reverse Sema3A effect | −1.3 | bound to wild-type L1 | – | does not affect | does not affect | 100% | did not | did not bind NP-1 |
